T1: human α-CGRP (Homo sapiens, UniProt P06881)
T1 construct: 1-37 (WT); purchased; host or cells: synthetic peptide
T1 sequence (P06881 83-119 limits assumed): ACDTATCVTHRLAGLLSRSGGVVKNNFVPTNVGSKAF

T2: rat α-CGRP (Rattus norvegicus, UniProt P01256)
T2 construct: rat α (1-37); host or cells: synthetic peptide
T2 sequence (P01256 83-119 limits assumed): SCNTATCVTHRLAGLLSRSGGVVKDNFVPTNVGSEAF

B1: M45: G1 variant: L1 R28N; L2 G50A,L56T; H2 E54K,A57N,S58E,E64D; HC-FW3 L99T,A100V (antibody, V domains shown)
VH: EVQLVESGGGLVQPGGSLRLSCAASGFTFSNYWISWVRQAPGKGLEWVAEIRSKSDNEATHYADAVKGRFTISRDNAKNSLYLQMNSLRAEDTAVYYCTVYFDYGLAIQNYWGQGTLVTVSS
VL: EIVLTQSPATLSLSPGERATLSCKASKNVTTYVSWYQQKPGQAPRLLIYAASNRYTGIPARFSGSGSGTDFTLTISSLEPEDFAVYYCSQSYNYPYTFGQGTKLEIK

Ends that are not written are not given here.

The target in one assay is T1, human α-CGRP. Kind of assay: Biacore affinity of antibody G1 Fab and variants to human α-CGRP. Type of assay: binding. The settings on record: 37° C., Fab, screening mode unless underlined. Summed up: (§1)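 Fab fragments flowed over N-biotinylated CGRP captured on SA chip in HBS-EP pH 7.4; titration series fit globally to 1:1 Langmuir model, KD = koff/kon. For very slow off-rates, kon from 550 nM–1 nM series with 30 s dissociation, koff from 2-hour dissociation.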
For orientation: Surface plasmon resonance follows binding to a sensor surface in real time, without labels.
For the molecule B1, the α-human koff is 0.000211 s⁻¹.

Another assay addresses T2, rat α-CGRP. As to the kind of experiment: Biacore affinity of antibody G1 Fab and variants to rat α-CGRP. Type of assay: binding. The settings on record: 37° C., Fab, screening mode unless underlined. In a few lines:
as §1
B1 returned a α-rat koff of 0.00558 s⁻¹.

The next assay deals with T3, binding of G1 Fab to human α-CGRP on the chip (Homo sapiens).
T3 construct: made in house; host or cells: E. coli (Fab); chip peptide purchased
T3 sequence (P01859 with tags, fused parts or gaps, other chains not shown): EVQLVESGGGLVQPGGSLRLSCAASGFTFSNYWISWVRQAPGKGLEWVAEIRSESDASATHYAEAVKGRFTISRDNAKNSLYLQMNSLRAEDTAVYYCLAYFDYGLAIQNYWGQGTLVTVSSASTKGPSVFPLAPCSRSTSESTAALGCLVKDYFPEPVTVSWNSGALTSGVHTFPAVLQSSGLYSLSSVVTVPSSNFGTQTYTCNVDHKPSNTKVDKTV
As to the kind of experiment: Epitope mapping of antibody G1 by peptide competition using Biacore. The settings on record: 10 μM peptide in 50 nM G1 Fab; FIG. 6. An excerpt:
N-biotinylated human α-CGRP was captured on SA sensor chip. […] Y axis represents percentage of binding blocked by the presence of the competing peptide compared with the binding in the absence of the competing peptide.
Human α-CGRP was purchased as an N-biotinylated version to enable its high-affinity capture via SA sensor chips. […] All these peptides are amidated at the C-terminus.
With “1-13: human α-CGRP fragment, SEQ ID NO: 40, ACDTATCVTHRLA (ACDTATCVTHRLA-OH; cysteine pairing not given here)”, the “percentage of binding of G1 Fab to human α-CGRP blocked by competing peptide” value (shortened to “percentage of binding of G1 Fab”) is reported as “did not compete”.

On to “1-19: human α-CGRP fragment, SEQ ID NO: 39, ACDTATCVTHRLAGLLSRS (ACDTATCVTHRLAGLLSRS-OH; cysteine pairing not given here)”, for which the “percentage of binding of G1 Fab” value is listed as “did not compete”.

For the molecule “1-36: human α-CGRP fragment, SEQ ID NO: 38, ACDTATCVTHRLAGLLSRSGGVVKNNFVPTNVGSKA (ACDTATCVTHRLAGLLSRSGGVVKNNFVPTNVGSKA-OH; cysteine pairing not given here)”, the “percentage of binding of G1 Fab” value is given as “about 40%”.

Take “19-36: human α-CGRP fragment, SEQ ID NO: 37, SGGVVKNNFVPTNVGSKA (SGGVVKNNFVPTNVGSKA-OH)”: the “percentage of binding of G1 Fab” value is “did not compete”.

Take “adrenomedullin: SEQ ID NO: 47, YRQSMNNFQGLRSFGCRFGTCTVQKLAHQIYQFTDKDKDNVAPRSKISPQGY”: the “percentage of binding of G1 Fab” value was “did not compete”.

Take “calcitonin: SEQ ID NO: 45, CGNLSTCMLGTYTQDFNKFHTFPQTAIGVGAP”: the “percentage of binding of G1 Fab” value is recorded as “did not compete”.

On to “human amylin: SEQ ID NO: 46, KCNTATCATQRLANFLVHSSNNFGAILSSTNVGSNTY”, for which the “percentage of binding of G1 Fab” value was “did not compete”.

For the origin of these results see US10766952B2, “Methods for reducing migraine frequency in a subject in need thereof” (Beth Israel Deaconess Medical Center, Inc., priority 2017, dated 2020).
